Reference: patent US20110206724A1

Tests used:
Test in all cases: capture ELISA on E. coli lysate
[1] = target: HyW-IM2(-)78 hybrid WHcAg particle (woodchuck hepatitis virus; influenza A virus)
[2] = target: WT-R-IM2(74) hybrid WHcAg construct (woodchuck hepatitis virus; influenza A virus)
[3] = target: HyW-IM2(74) hybrid WHcAg construct (woodchuck hepatitis virus; influenza A virus)
[4] = target: 150C-IM2(74) hybrid WHcAg construct (woodchuck hepatitis virus; influenza A virus)

mAb 14C2, anti-influenza M2e (antibody) was tested, and the relative binding score (Accessability) (relative score) [1] was 3, the relative binding score (Accessability) (relative score) [2] was 2 and the relative binding score (Accessability) (relative score) [3] was 3. The relative binding score (Accessability) (relative score) [4] was 3.
